{"source": "patent CN113999308A", "about": "(SHENZHEN PEOPLES HOSPITAL, dated 2022)", "binders": {"B1": {"name": "Nb193纳米抗体 (Nb193 nanobody) (VHH)", "VHH": "AVQLVESGGGLVQAGGSLRLSCVASGSTLERYAVYWYRQPPGKERELVAGIMRGGNINYADSVKGRFTISKDYAKNTLILQMNSLKPEDTAVYYCNAGGSRFGYWGQGTQVTVSS", "notes": "From a naive alpaca phage display nanobody library; Expressed in E. coli with HA tag and His tag, about 15 kDa; the tag piece is put last only for want of better; not shown: HA tag and His tag fused to the nanobody (pET-14B, E. coli)"}}, "target": "T1, CDH17蛋白细胞外段1~3结构域 (recombinant CDH17 extracellular domains 1-3) (human, UniProt Q12864 23-340, limits assumed)", "T1 construct": "domain: 细胞外段1~3 结构域; purified on Ni resin, so probably His-tagged, but the tag is not described; also called CDH17 1-3D; CDH17 1~3结构域蛋白", "T1 sequence (looked up)": "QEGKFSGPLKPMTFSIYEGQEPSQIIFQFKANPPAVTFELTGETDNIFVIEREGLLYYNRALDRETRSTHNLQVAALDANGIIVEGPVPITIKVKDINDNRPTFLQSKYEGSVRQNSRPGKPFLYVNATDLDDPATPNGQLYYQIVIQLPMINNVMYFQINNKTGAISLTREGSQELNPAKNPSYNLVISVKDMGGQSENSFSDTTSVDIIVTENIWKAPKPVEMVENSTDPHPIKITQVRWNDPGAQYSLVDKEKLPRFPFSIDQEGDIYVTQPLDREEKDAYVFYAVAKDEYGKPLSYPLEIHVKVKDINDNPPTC", "test": "SPR (Biacore), purified antigen on the chip, nanobody as analyte (Fig. 5E)"}
{"binder": "B1", "values": [{"measurement": "Kd", "result": 17.6, "unit": "nM"}]}
